Reference: patent publication US10898561B2, “Peptides and combination of peptides for use in immunotherapy against pancreatic cancer and other cancers” (IMMATICS BIOTECHNOLOGIES GMBH, priority 2015, dated 2021)

target: HLA-A*02:01 (Homo sapiens, UniProt P04439, D140Y/D185E/D98H/E176V/E277Q/G131W/G231S/I119V/I121R/I166T/I218V/L300P/L318F/N151K/N90K/P208A/P217A/Q86G/Q94H/R138H/R169H/T345S); assay: MHC binding assay: UV-ligand exchange with beta2m ELISA; details: MHC class I binding score, yield of UV-ligand exchange
From the text: Candidate peptides for T cell based therapies according to the present invention were further tested for their MHC binding capacity (affinity). The individual peptide-MHC complexes were produced by UV-ligand exchange, where a UV-sensitive peptide is cleaved upon UV-irradiation, and exchanged with the peptide of interest as analyzed. Only peptide candidates that can effectively bind and stabilize the peptide-receptive MHC molecules prevent dissociation of the MHC complexes. To determine the yield of the exchange reaction, an ELISA was performed based on the detection of the light chain (β2m) of stabilized MHC complexes. The assay was performed as generally described in Rodenko et al. (Rodenko et al., 2006).
96 well MAXISorp plates (NUNC) were coated over night with 2 ug/ml streptavidin in PBS at room temperature, washed 4× and blocked for 1 h at 37° C. in 2% BSA containing blocking buffer. Refolded HLA-A*02:01/MLA-001 monomers served as standards, covering the range of 15-500 ng/ml. Peptide-MHC monomers of the UV-exchange reaction were diluted 100 fold in blocking buffer. Samples were incubated for 1 h at 37° C., washed four times, incubated with 2 ug/ml HRP conjugated anti-β2m for 1 h at 37° C., washed again and detected with TMB solution that is stopped with […]. Absorption was measured at 450 nm. Candidate peptides that show a high exchange yield (preferably higher than 50%, most preferred higher than 75%) are generally preferred for a generation and production of antibodies or fragments thereof, and/or T cell receptors or fragments thereof, as they show sufficient avidity to the MHC molecules and prevent dissociation of the MHC complexes.

Peptide exchange	Substance
+ (<20% = +)	49 (NLKGTFATL; listed as Homo sapiens) [compound 49]
++ (20%-49% = ++)	52 (RMVEEIGVEL; listed as Homo sapiens) [compound 52]
++ (20%-49% = ++)	6 (VLISLKQAPLV; listed as Homo sapiens) [compound 6]
++ (20%-49% = ++)	10 (FLVDGSSAL; listed as Homo sapiens) [compound 10]
++ (20%-49% = ++)	28 (YLQGQRLDNVV; listed as Homo sapiens) [compound 28]
++ (20%-49% = ++)	24 (GLLEELVTV; listed as Homo sapiens) [compound 24]
++ (20%-49% = ++)	16 (APVNVTTEVKSV; listed as Homo sapiens) [compound 16]
++ (20%-49% = ++)	13 (LLAGQTYHV; listed as Homo sapiens) [compound 13]
++ (20%-49% = ++)	40 (FILDSAETTTL; listed as Homo sapiens) [compound 40]
++ (20%-49% = ++)	2 (SLQEEHVAVA; listed as Homo sapiens) [compound 2]
++ (20%-49% = ++)	31 (SLAAAAGKQEL; listed as Homo sapiens) [compound 31]
++ (20%-49% = ++)	26 (SLKEEVGEEAIV; listed as Homo sapiens) [compound 26]
++ (20%-49% = ++)	46 (TFAPVNVTTEVKSV; listed as Homo sapiens) [compound 46]
++ (20%-49% = ++)	39 (TLLSNLEEA; listed as Homo sapiens) [compound 39]
+++ (50%-75% = +++)	29 (FLQEYLDAI; listed as Homo sapiens) [compound 29]
++ (20%-49% = ++)	1 (FLAQQESEI; listed as Homo sapiens) [compound 1]
++++ (>=75% = ++++)	47 (KMDASLGNLFA; listed as Homo sapiens) [compound 47]
++ (20%-49% = ++)	25 (SLKEEVGEEAI; listed as Homo sapiens) [compound 25]
++ (20%-49% = ++)	65 (YLYDSETKNA; listed as Homo sapiens) [compound 65]
++ (20%-49% = ++)	43 (RLDQRVPQI; listed as Homo sapiens) [compound 43]
+++ (50%-75% = +++)	41 (FLLDGSEGV; listed as Homo sapiens) [compound 41]
++ (20%-49% = ++)	48 (ALTQTGGPHV; listed as Homo sapiens) [compound 48]
+ (<20% = +)	32 (SLAAAAGKQELA; listed as Homo sapiens) [compound 32]
++ (20%-49% = ++)	22 (TLDGAAVNQV; listed as Homo sapiens) [compound 22]
+++ (50%-75% = +++)	56 (GLLDYATGAIGSV; listed as Homo sapiens) [compound 56]
++ (20%-49% = ++)	33 (SLDSRLELA; listed as Homo sapiens) [compound 33]
++ (20%-49% = ++)	17 (FLKSGDAAIV; listed as Homo sapiens) [compound 17]

Peptide exchange	Substance
++ (20%-49% = ++)	51 (ALMLQGVDL; listed as Homo sapiens) [compound 51]
++ (20%-49% = ++)	55 (YLDAMMNEA; listed as Homo sapiens) [compound 55]
++ (20%-49% = ++)	60 (YLEEDVYQL; listed as Homo sapiens) [compound 60]
++++ (>=75% = ++++)	57 (FLGKVVIDV; listed as Homo sapiens) [compound 57]
++ (20%-49% = ++)	44 (VLLDKIKNLQV; listed as Homo sapiens) [compound 44]
++ (20%-49% = ++)	54 (VLLSEIEVA; listed as Homo sapiens) [compound 54]
++ (20%-49% = ++)	18 (SLLDDELMSL; listed as Homo sapiens) [compound 18]
++ (20%-49% = ++)	27 (YLQGQRLDNV; listed as Homo sapiens) [compound 27]
++ (20%-49% = ++)	7 (AQQESEIAGI; listed as Homo sapiens) [compound 7]
++ (20%-49% = ++)	4 (SVDVSPPKV; listed as Homo sapiens) [compound 4]
+ (<20% = +)	53 (SSFGGLGGGSV; listed as Homo sapiens) [compound 53]
+++ (50%-75% = +++)	64 (FLVSNMLLAEA; listed as Homo sapiens) [compound 64]
+++ (50%-75% = +++)	67 (KMFFLIDKV; listed as Homo sapiens) [compound 67]
+++ (50%-75% = +++)	38 (NLVEKTPALV; listed as Homo sapiens) [compound 38]
++ (20%-49% = ++)	15 (SLANNVTSV; listed as Homo sapiens) [compound 15]
++ (20%-49% = ++)	59 (KLFNLSKEDDV; listed as Homo sapiens) [compound 59]
++ (20%-49% = ++)	30 (VVDEGPTGV; listed as Homo sapiens) [compound 30]
+++ (50%-75% = +++)	5 (LLVDDSFLHTV; listed as Homo sapiens) [compound 5]
+++ (50%-75% = +++)	11 (FLYKIIDEL; listed as Homo sapiens) [compound 11]
+++ (50%-75% = +++)	58 (GLAAFKAFL; listed as Homo sapiens) [compound 58]
++ (20%-49% = ++)	8 (IVDDLTINL; listed as Homo sapiens) [compound 8]
++ (20%-49% = ++)	14 (VLAKPGVISV; listed as Homo sapiens) [compound 14]
+++ (50%-75% = +++)	66 (ALLSGLREA; listed as Homo sapiens) [compound 66]
+++ (50%-75% = +++)	12 (FVSEIVDTV; listed as Homo sapiens) [compound 12]
++ (20%-49% = ++)	42 (KLVDKSTEL; listed as Homo sapiens) [compound 42]
++ (20%-49% = ++)	35 (VMDSGDGVTHTV; listed as Homo sapiens) [compound 35]
++ (20%-49% = ++)	9 (FLFDGSANLV; listed as Homo sapiens) [compound 9]
